According to paper PMC4938799, “LD Motif Recognition by Talin: Structure of the Talin-DLC1 Complex” (Structure(London, England:1993), 2016):
Substitutions are numbered along the chain they refer to. Names may count otherwise. “Also recorded” adds a separate entry of the source.

B1: talin R8 K1530E: GST-tagged talin R8 single mutant K1530E (protein)
chain: NSQAGQQGLVEPTQFARANQAIQMACQSLGEPGCTQAQVLSAATIVAKHTSALCNSCRLASARTANPTAKRQFVQSAEEVANSTANLVKTIKALDGDFTEENRAQCRAATAPLLEAVDNLSAFASNPE
modifications: left off: GST, end not stated, kept
B2: 2E double mutant: GST-tagged talin R8 K1530E/K1544E double mutant (protein)
chain: B1 chain with K92E
modifications: left off: GST, end not stated, kept
B3: GFP-DLC1: GFP fusion of full-length DLC1 expressed from plasmid (protein)
chain: MCRKKPDTMILTQIEAKEACDWLRATGFPQYAQLYEDFLFPIDISLVKREHDFLDRDAIEALCRRLNTLNKCAVMKLEISPHRKRSDDSDEDEPCAISGKWTFQRDSKRWSRLEEFDVFSPKQDLVPGSPDDSHPKDGPSPGGTLMDLSERQEVSSVRSLSSTGSLPSHAPPSEDAATPRTNSVISVCSSSNLAGNDDSFGSLPSPKELSSFSFSMKGHEKTAKSKTRSLLKRMESLKLKSSHHSKHKAPSKLGLIISGPILQEGMDEEKLKQLNCVEISALNGNRINVPMVRKRSVSNSTQTSSSSSQSETSSAVSTPSPVTRTRSLSACNKRVGMYLEGFDPFNQSTFNNVVEQNFKNRESYPEDTVFYIPEDHKPGTFPKALTNGSFSPSGNNGSVNWRTGSFHGPGHISLRRENSSDSPKELKRRNSSSSMSSRLSIYDNVPGSILYSSSGDLADLENEDIFPELDDILYHVKGMQRIVNQWSEKFSDEGDSDSALDSVSPCPSSPKQIHLDVDNDRTTPSDLDSTGNSLNEPEEPSEIPERRDSGVGASLTRSNRHRLRWHSFQSSHRPSLNSVSLQINCQSVAQMNLLQKYSLLKLTALLEKYTPSNKHGFSWAVPKFMKRIKVPDYKDRSVFGVPLTVNVQRTGQPLPQSIQQAMRYLRNHCLDQVGLFRKSGVKSRIQALRQMNEGAIDCVNYEGQSAYDVADMLKQYFRDLPEPLMTNKLSETFLQIYQYVPKDQRLQAIKAAIMLLPDENREVLQTLLYFLSDVTAAVKENQMTPTNLAVCLAPSLFHLNTLKRENSSPRVMQRKQSLGKPDQKDLNENLAATQGLAHMIAECKKLFQVPEEMSRCRNSYTEQELKPLTLEALGHLGNDDSADYQHFLQDCVDGLFKEVKEKFKGWVSYSTSEQAELSYKKVSEGPPLRLWRSVIEVPAVPEEILKRLLKEQHLWDVDLLDSKVIEILDSQTEIYQYVQNSMAPHPARDYVVLRTWRTNLPKGACALLLTSVDHDRAPVVGVRVNVLLSRYLIEPCGPGKSKLTYMCRVDLRGHMPEWYTKSFGHLCAAEVVKIRDSFSNQNTETKDTKSR
modifications: left off: GFP, end not stated, kept
notes: GFP fusion of full-length DLC1 expressed from plasmid

What was measured:
Type in all cases: cell-based
GFP-DLC1 = assay: GST pull-down of GFP-DLC1 in HEK 293T cells; settings: HEK 293T cells co-transfected with GFP-DLC1 and GST-tagged talin constructs, immunoblot
Protocol: We reported previously that wild-type talin R8 is sufficient to form a complex with full-length DLC1 in cells ([Li et al., 2011]). To evaluate the effects of the single K1530E and K1544E and double K1530E/K1544E (2E) R8 mutants on the complex formation in vivo, we engineered GST-tagged R8 constructs into isogenic mammalian expression plasmids and co-transfected them with GFP-DLC1 into HEK 293T cells. Complex formation was determined by a GST pull-down assay.
The plasmids expressing GFP-DLC1 and GST fusion proteins with talin rod fragments encoding talin amino acids 1,288–1,646 and 1,453–1,580 (R8) were described previously ([Li et al., 2011]). The plasmid encoding 1,352–1,580 (R7R8) was engineered by PCR and subcloned into a eukaryotic expression vector, PEBG. HEK293T cells were transfected by Lipofectamine 2000, and DLC1-null lung adenocarcinoma cell lines A549 and H358 cells were transfected by Lipofectamine 3000 according to the manufacturer’s instructions (Invitrogen). Cells were co-transfected with plasmids expressing GFP-DLC1 or Paxillin-DDK and GST, GST-talin fragments, or vector at a ratio of 1:2.5. Cells were incubated at 37°C in a humidified 5% CO2 atmosphere. In vivo pull-down assay, co-immunoprecipitation, immunoblotting, G418 colony growth, soft agar growth, and cell migration assays were described previously ([Qian et al., 2009]). All experiments were conducted in triplicate.
Figure S2, related to Figures 4 and 5. […]
R8 talin fragment were co-transfected with GFP-DLC1 into 293T cells. Cell extracts were subjected
(1 picture or pasted object on this page, not shown here) […]
to pull-down assay with glutathione beads followed by immunoblotting with anti-GST and anti-DLC1 on the same membrane (top). The transfected GFP-DLC1 in each sample is shown by the anti-DLC1 blot (bottom) as a loading control. […]
HEK 293T cells were transfected by lipofectamine 2000 and DLC1-null lung adenocarcinoma cell lines A549 and H358 cells were transfected by lipofectamine 3000 according to manufacturer instructions (Invitrogen). Cells were co-transfected with plasmids expressing GFP-DLC1 or Paxillin-DDK and GST, GST-talin fragments, or vector at a ratio of 1:2.5. Cells were incubated at 37 °C in a humidified 5% CO2 atmosphere.
In vivo pull-down assay, co-immunoprecipitation, and immunoblotting - As described previously (Qian et al., 2009), two days after transfection, cell extracts were collected using golden lysis buffer (GLB: 20 mM Tris pH 7.9, 137 mM NaCl, 10% glycerol, 1% Triton, 5 mM EDTA, 1 mM EGTA, 1 mM Na3VO4, 10 mM NaF, 1 mM sodium pyrophosphate, 0.5 mM β-glycerophosphate, and protease inhibitor cocktail tablet (Roche)). The cleared supernatants were collected, and the amount of protein estimated by BCA kit (Pierce). […]

[1] = tested on: A549 human non-small cell lung cancer line; assay: G418 (monolayer) colony growth assay; settings: transfected A549, G418 for 3 weeks; mean over three experiments
Description: (§1) Figure 6 Talin R8 Mutations Disrupt the Interaction with DLC1 and Affect Its Biological Activity (A) Wild-type GST-talin fragments pull down more DLC1 than the 2E mutants. Extracts of HEK293T cells transfected with GFP-DLC1 and GST-talin constructs were subjected to pull-down assays with glutathione beads followed by immunoblotting with anti-GST and anti-DLC1 on the same membrane (top). The transfected GFP-DLC1 in each sample is shown by the anti-DLC1 blot (bottom) as a loading control. (B) Wild-type GST-talin fragments compete efficiently with endogenous talin to form a complex with DLC1. The supernatants collected after pull-down assay from (A) were reused for co-immunoprecipitation with an anti-talin antibody and blotted with anti-DLC1 (top). A small aliquot from each lane was blotted for endogenous talin as a loading control (bottom). (C) Co-expression of GST or GST-talin fragments (wild-type or 2E mutant) with GFP DLC1 in A549 cells. […] Transfected A549 cells were cultured in G418 for 3 weeks, and colonies counted and quantitated (top). […] Transfected A549 cells were grown for 3 weeks in soft agar, and colonies counted and quantitated (top). […] Lysates from migrated cells were quantitated (top), and representative microscopic images of the migrated cells are shown (bottom). […]

[2] = tested on: A549 human non-small cell lung cancer line; assay: Transwell cell migration assay; settings: transfected A549, transwell, 24 h; mean over three experiments
Description: as §1

[3] = tested on: A549 human non-small cell lung cancer line; assay: Growth in soft agar; settings: transfected A549, 3 weeks; mean over three experiments
Description: as §1

| Molecule | DLC1 binding in GST pull-down (GFP-DLC1) | DLC1 binding in GST pull-down (GFP-DLC1; listed as GST-talin R1530E) | DLC1 binding in GST pull-down (GFP-DLC1; listed as talin R8 K1530E/K1544E double mutant) | colony growth [1] | cell migration [2] | growth in soft agar [3] |
| --- | --- | --- | --- | --- | --- | --- |
| B1 | greater reduction in DLC1 binding than K1544E | binds DLC1 less well than the K1544E mutant | – | – | – | – |
| B2 | reduced binding to a greater extent than either single mutant | – | markedly reduced binding | – | – | – |
| B3 | – | – | – | suppressed colony formation; also recorded: inhibitory in all three assays | suppressed cell migration; also recorded: inhibitory in all three assays | inhibitory in all three assays |
